According to US20110294738A1, “PTHR1 RECEPTOR COMPOUNDS” (priority 2008, published 2011):
* marks the point of attachment. Palmitoyl = CCCCCCCCCCCCCCCC(=O)*

B1: Compound 51 (peptide)
peptide: Palmitoyl-RETNAGRSDTRQQYRKLLKS-NH2
SMILES: CCCCCCCCCCCCCCCC(=O)N[C@@H](CCCNC(=N)N)C(=O)N[C@@H](CCC(=O)O)C(=O)N[C@H](C(=O)N[C@@H](CC(N)=O)C(=O)N[C@@H](C)C(=O)NCC(=O)N[C@@H](CCCNC(=N)N)C(=O)N[C@@H](CO)C(=O)N[C@@H](CC(=O)O)C(=O)N[C@H](C(=O)N[C@@H](CCCNC(=N)N)C(=O)N[C@@H](CCC(N)=O)C(=O)N[C@@H](CCC(N)=O)C(=O)N[C@@H](Cc1ccc(O)cc1)C(=O)N[C@@H](CCCNC(=N)N)C(=O)N[C@@H](CCCCN)C(=O)N[C@@H](CC(C)C)C(=O)N[C@@H](CC(C)C)C(=O)N[C@@H](CCCCN)C(=O)N[C@@H](CO)C(N)=O)[C@@H](C)O)[C@@H](C)O
B2: Compound 52 (peptide)
peptide: Palmitoyl-TNAGRSDTRQQYRKLLKSTL-NH2
SMILES: CCCCCCCCCCCCCCCC(=O)N[C@H](C(=O)N[C@@H](CC(N)=O)C(=O)N[C@@H](C)C(=O)NCC(=O)N[C@@H](CCCNC(=N)N)C(=O)N[C@@H](CO)C(=O)N[C@@H](CC(=O)O)C(=O)N[C@H](C(=O)N[C@@H](CCCNC(=N)N)C(=O)N[C@@H](CCC(N)=O)C(=O)N[C@@H](CCC(N)=O)C(=O)N[C@@H](Cc1ccc(O)cc1)C(=O)N[C@@H](CCCNC(=N)N)C(=O)N[C@@H](CCCCN)C(=O)N[C@@H](CC(C)C)C(=O)N[C@@H](CC(C)C)C(=O)N[C@@H](CCCCN)C(=O)N[C@@H](CO)C(=O)N[C@H](C(=O)N[C@@H](CC(C)C)C(N)=O)[C@@H](C)O)[C@@H](C)O)[C@@H](C)O
B3: Compound 53 (peptide)
peptide: Palmitoyl-KLRETNAGRSDTRQQY-NH2
SMILES: CCCCCCCCCCCCCCCC(=O)N[C@@H](CCCCN)C(=O)N[C@@H](CC(C)C)C(=O)N[C@@H](CCCNC(=N)N)C(=O)N[C@@H](CCC(=O)O)C(=O)N[C@H](C(=O)N[C@@H](CC(N)=O)C(=O)N[C@@H](C)C(=O)NCC(=O)N[C@@H](CCCNC(=N)N)C(=O)N[C@@H](CO)C(=O)N[C@@H](CC(=O)O)C(=O)N[C@H](C(=O)N[C@@H](CCCNC(=N)N)C(=O)N[C@@H](CCC(N)=O)C(=O)N[C@@H](CCC(N)=O)C(=O)N[C@@H](Cc1ccc(O)cc1)C(N)=O)[C@@H](C)O)[C@@H](C)O
B4: Compound 37 (peptide)
peptide: Palmitoyl-LHSLIFMAFFSEKKYLWGFT-NH2
SMILES: CCCCCCCCCCCCCCCC(=O)N[C@@H](CC(C)C)C(=O)N[C@@H](Cc1c[nH]cn1)C(=O)N[C@@H](CO)C(=O)N[C@@H](CC(C)C)C(=O)N[C@H](C(=O)N[C@@H](Cc1ccccc1)C(=O)N[C@@H](CCSC)C(=O)N[C@@H](C)C(=O)N[C@@H](Cc1ccccc1)C(=O)N[C@@H](Cc1ccccc1)C(=O)N[C@@H](CO)C(=O)N[C@@H](CCC(=O)O)C(=O)N[C@@H](CCCCN)C(=O)N[C@@H](CCCCN)C(=O)N[C@@H](Cc1ccc(O)cc1)C(=O)N[C@@H](CC(C)C)C(=O)N[C@@H](Cc1c[nH]c2ccccc12)C(=O)NCC(=O)N[C@@H](Cc1ccccc1)C(=O)N[C@H](C(N)=O)[C@@H](C)O)[C@@H](C)CC

These binders were tested against PTHR1 receptor.
Chain of PTHR1 receptor (P25961 whole entry): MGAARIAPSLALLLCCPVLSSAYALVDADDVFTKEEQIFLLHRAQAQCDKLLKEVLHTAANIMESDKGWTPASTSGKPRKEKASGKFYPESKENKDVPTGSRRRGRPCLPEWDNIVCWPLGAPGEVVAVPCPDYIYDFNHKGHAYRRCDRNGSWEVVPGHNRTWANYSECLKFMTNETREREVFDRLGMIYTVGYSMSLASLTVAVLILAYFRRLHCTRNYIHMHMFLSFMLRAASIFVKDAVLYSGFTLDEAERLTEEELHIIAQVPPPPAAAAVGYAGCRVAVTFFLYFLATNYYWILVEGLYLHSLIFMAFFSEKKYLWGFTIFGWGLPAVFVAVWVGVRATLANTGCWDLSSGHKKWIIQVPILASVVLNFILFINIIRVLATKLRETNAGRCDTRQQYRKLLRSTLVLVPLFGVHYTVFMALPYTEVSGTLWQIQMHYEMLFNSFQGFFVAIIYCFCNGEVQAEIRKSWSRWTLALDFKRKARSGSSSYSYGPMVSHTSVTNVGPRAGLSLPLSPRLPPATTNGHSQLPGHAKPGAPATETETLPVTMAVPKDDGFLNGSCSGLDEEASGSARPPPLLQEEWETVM

Binder | Fold Shift of EC50 | Inhibition of Maximal Response
B1 | 12.4 fold | -0.015
B2 | 11.1 fold | 1.7%
B3 | 2.1 fold | 6.4%
B4 | 1.1 fold | 35.6%
